# ± gives the uncertainty stated by the source.
# Assay: abundance fitness (aPCA) (normalised: wild type 0, dead -1); higher = more abundant; growth selection in yeast, the domain comes from the species named
# Conditions: Homo sapiens
row,Substance,abundance fitness
1,"NEDD4-like E3 ubiquitin-protein ligase WWP2 M452L, O00308",-0.108 ± 0.042
2,"NEDD4-like E3 ubiquitin-protein ligase WWP2 I441Y, O00308",-0.33 ± 0.11
3,"NEDD4-like E3 ubiquitin-protein ligase WWP2 K473W, O00308",-0.026 ± 0.075
4,"NEDD4-like E3 ubiquitin-protein ligase WWP2 R493G, O00308",0.041 ± 0.064
5,"NEDD4-like E3 ubiquitin-protein ligase WWP2 T469N, O00308",-0.093 ± 0.072
6,"NEDD4-like E3 ubiquitin-protein ligase WWP2 E451C, O00308",-0.227 ± 0.063
7,"NEDD4-like E3 ubiquitin-protein ligase WWP2 A445M, O00308",-0.073 ± 0.052
8,"NEDD4-like E3 ubiquitin-protein ligase WWP2 D474T, O00308",-0.442 ± 0.079
9,"NEDD4-like E3 ubiquitin-protein ligase WWP2 G482F, O00308",-0.124 ± 0.06
10,"NEDD4-like E3 ubiquitin-protein ligase WWP2 A490Y, O00308",-0.09 ± 0.061
11,"NEDD4-like E3 ubiquitin-protein ligase WWP2 E451G, O00308",-0.287 ± 0.037
12,"NEDD4-like E3 ubiquitin-protein ligase WWP2 G458R, O00308",-0.139 ± 0.046
13,"NEDD4-like E3 ubiquitin-protein ligase WWP2 P448C, O00308",-0.216 ± 0.074
14,"NEDD4-like E3 ubiquitin-protein ligase WWP2 T470P, O00308",-0.906 ± 0.14
15,"NEDD4-like E3 ubiquitin-protein ligase WWP2 V463C, O00308",-0.307 ± 0.086
16,"NEDD4-like E3 ubiquitin-protein ligase WWP2 R468W, O00308",-0.336 ± 0.066
17,"NEDD4-like E3 ubiquitin-protein ligase WWP2 F462D, O00308",-0.675 ± 0.084
18,"NEDD4-like E3 ubiquitin-protein ligase WWP2 P477W, O00308",-0.138 ± 0.048
19,"NEDD4-like E3 ubiquitin-protein ligase WWP2 E457A, O00308",-0.081 ± 0.044
20,"NEDD4-like E3 ubiquitin-protein ligase WWP2 S481D, O00308",0.01 ± 0.037
21,"Transcription factor SOX-11 M74L, P35716",-0.084 ± 0.056
22,"NEDD4-like E3 ubiquitin-protein ligase WWP2 P444I, O00308",-0.2 ± 0.049
23,"NEDD4-like E3 ubiquitin-protein ligase WWP2 A445Q, O00308",0.031 ± 0.049

row,Substance,abundance fitness
1,"NEDD4-like E3 ubiquitin-protein ligase WWP2 I441N, O00308",0.137 ± 0.071
2,"NEDD4-like E3 ubiquitin-protein ligase WWP2 G486P, O00308",0.013 ± 0.049
3,"NEDD4-like E3 ubiquitin-protein ligase WWP2 G449V, O00308",-0.679 ± 0.035
4,"NEDD4-like E3 ubiquitin-protein ligase WWP2 V459Q, O00308",-0.019 ± 0.069
5,"NEDD4-like E3 ubiquitin-protein ligase WWP2 G478L, O00308",0.012 ± 0.035
6,"NEDD4-like E3 ubiquitin-protein ligase WWP2 G482K, O00308",-0.037 ± 0.068
7,"NEDD4-like E3 ubiquitin-protein ligase WWP2 F472S, O00308",-0.351 ± 0.048
8,"NEDD4-like E3 ubiquitin-protein ligase WWP2 E443R, O00308",-0.174 ± 0.042
9,"NEDD4-like E3 ubiquitin-protein ligase WWP2 A490Q, O00308",0.029 ± 0.069
10,"NEDD4-like E3 ubiquitin-protein ligase WWP2 R476N, O00308",-0.186 ± 0.049
11,"NEDD4-like E3 ubiquitin-protein ligase WWP2 I441P, O00308",-0.503 ± 0.083
12,"NEDD4-like E3 ubiquitin-protein ligase WWP2 N466S, O00308",-0.175 ± 0.049
13,"NEDD4-like E3 ubiquitin-protein ligase WWP2 D474C, O00308",-0.288 ± 0.057
14,"NEDD4-like E3 ubiquitin-protein ligase WWP2 I441W, O00308",-0.297 ± 0.067
15,"NEDD4-like E3 ubiquitin-protein ligase WWP2 Q485P, O00308",-0.184 ± 0.068
16,"NEDD4-like E3 ubiquitin-protein ligase WWP2 M440R, O00308",-0.103 ± 0.087
17,"NEDD4-like E3 ubiquitin-protein ligase WWP2 G489M, O00308",-0.048 ± 0.07
18,"NEDD4-like E3 ubiquitin-protein ligase WWP2 K453L, O00308",0.034 ± 0.038
19,"NEDD4-like E3 ubiquitin-protein ligase WWP2 D474L, O00308",-0.326 ± 0.061
20,"Transcription factor SOX-11 K108Q, P35716",-0.031 ± 0.13
21,"NEDD4-like E3 ubiquitin-protein ligase WWP2 S481C, O00308",-0.054 ± 0.061
22,"NEDD4-like E3 ubiquitin-protein ligase WWP2 T469Q, O00308",-0.196 ± 0.06
23,"NEDD4-like E3 ubiquitin-protein ligase WWP2 G489D, O00308",-0.02 ± 0.053

row,Substance,abundance fitness
1,"NEDD4-like E3 ubiquitin-protein ligase WWP2 V459E, O00308",0.085 ± 0.036
2,"NEDD4-like E3 ubiquitin-protein ligase WWP2 V459C, O00308",-0.11 ± 0.065
3,"NEDD4-like E3 ubiquitin-protein ligase WWP2 Y461M, O00308",-0.424 ± 0.038
4,"NEDD4-like E3 ubiquitin-protein ligase WWP2 W450L, O00308",-0.421 ± 0.048
5,"NEDD4-like E3 ubiquitin-protein ligase WWP2 P477N, O00308",-0.081 ± 0.053
6,"NEDD4-like E3 ubiquitin-protein ligase WWP2 D474K, O00308",-0.505 ± 0.14
7,"NEDD4-like E3 ubiquitin-protein ligase WWP2 H465K, O00308",-0.216 ± 0.064
8,"NEDD4-like E3 ubiquitin-protein ligase WWP2 E451W, O00308",-1.18 ± 0.18
9,"NEDD4-like E3 ubiquitin-protein ligase WWP2 G482E, O00308",-0.064 ± 0.049
10,"NEDD4-like E3 ubiquitin-protein ligase WWP2 G449E, O00308",-0.167 ± 0.053
11,"NEDD4-like E3 ubiquitin-protein ligase WWP2 G489N, O00308",-0.008 ± 0.033
12,"NEDD4-like E3 ubiquitin-protein ligase WWP2 K484E, O00308",-0.037 ± 0.061
13,"NEDD4-like E3 ubiquitin-protein ligase WWP2 G482Q, O00308",-0.009 ± 0.057
14,"NEDD4-like E3 ubiquitin-protein ligase WWP2 R460G, O00308",-0.166 ± 0.041
15,"NEDD4-like E3 ubiquitin-protein ligase WWP2 R468Y, O00308",-0.251 ± 0.064
16,"NEDD4-like E3 ubiquitin-protein ligase WWP2 H465N, O00308",-0.208 ± 0.086
17,"NEDD4-like E3 ubiquitin-protein ligase WWP2 E443N, O00308",-0.019 ± 0.08
18,"Heterogeneous nuclear ribonucleoprotein U-like protein 2 S22D, Q1KMD3",0.187 ± 0.09
19,"NEDD4-like E3 ubiquitin-protein ligase WWP2 L446Y, O00308",-0.072 ± 0.07
20,"NEDD4-like E3 ubiquitin-protein ligase WWP2 D492F, O00308",-0.217 ± 0.044
21,"NEDD4-like E3 ubiquitin-protein ligase WWP2 T469C, O00308",-0.078 ± 0.057
22,"NEDD4-like E3 ubiquitin-protein ligase WWP2 Y491I, O00308",0.022 ± 0.068
23,"NEDD4-like E3 ubiquitin-protein ligase WWP2 F462I, O00308",-1.03 ± 0.16

row,Substance,abundance fitness
1,"Transcription factor SOX-11 I96R, P35716",-0.209 ± 0.048
2,"NEDD4-like E3 ubiquitin-protein ligase WWP2 P447Y, O00308",-0.5 ± 0.081
3,"NEDD4-like E3 ubiquitin-protein ligase WWP2 F462S, O00308",-1.04 ± 0.051
4,"NEDD4-like E3 ubiquitin-protein ligase WWP2 M452S, O00308",-0.069 ± 0.04
5,"NEDD4-like E3 ubiquitin-protein ligase WWP2 N466V, O00308",-0.212 ± 0.048
6,"NEDD4-like E3 ubiquitin-protein ligase WWP2 T471N, O00308",-0.81 ± 0.12
7,"NEDD4-like E3 ubiquitin-protein ligase WWP2 S481N, O00308",-0.062 ± 0.054
8,"NEDD4-like E3 ubiquitin-protein ligase WWP2 D492Y, O00308",-0.189 ± 0.033
9,"NEDD4-like E3 ubiquitin-protein ligase WWP2 F462Y, O00308",-0.048 ± 0.081
10,"NEDD4-like E3 ubiquitin-protein ligase WWP2 D492R, O00308",-0.223 ± 0.051
11,"NEDD4-like E3 ubiquitin-protein ligase WWP2 A490E, O00308",0.024 ± 0.062
12,"NEDD4-like E3 ubiquitin-protein ligase WWP2 F479Y, O00308",-0.18 ± 0.08
13,"NEDD4-like E3 ubiquitin-protein ligase WWP2 G486M, O00308",-0.01 ± 0.036
14,"NEDD4-like E3 ubiquitin-protein ligase WWP2 Y491K, O00308",-0.061 ± 0.064
15,"NEDD4-like E3 ubiquitin-protein ligase WWP2 P448F, O00308",0.015 ± 0.04
16,"NEDD4-like E3 ubiquitin-protein ligase WWP2 G486S, O00308",-0.041 ± 0.049
17,"Transcription factor SOX-11 K50R, P35716",-0.396 ± 0.13
18,"NEDD4-like E3 ubiquitin-protein ligase WWP2 S481G, O00308",-0.032 ± 0.047
19,"NEDD4-like E3 ubiquitin-protein ligase WWP2 P488E, O00308",0.018 ± 0.055
20,"NEDD4-like E3 ubiquitin-protein ligase WWP2 Y454E, O00308",-0.046 ± 0.052

# From the Human Domainome abundance scans (Beltran et al. 2025)
